Assay results reported in US8969081B2, “Caudal motor neuron derived from embryonic stem cells under conditions essentially free of any retinoid” (The Trustees of Columbia University in the City of New York, priority 2008, dated 2015).
“Also recorded” adds a separate entry of the source.

How the values were obtained:
[1] = test system: differentiating ES cells / ES-MNs; test: Rostro-caudal patterning of differentiating ES cells (Hox / positional marker immunostaining); assay type: cell-based, mouse; conditions: for Rostro-caudal positional marker expression / segmental identity: EBs supplemented on Day 3, markers examined two to four days later; for Rostro-caudal identity of MNs after FGF2 (Hoxd9): 100 ng/ml on day 3
Experimental: (§1) Differentiation of cervical level motor neurons from mouse ES cells was performed as previously described (Wichterle et al., 2002). For differentiation of caudal brachial level MNs from ES cells, ES cells were grown in ES cell medium for two days, dissociated and plated into non-adherent tissue culture dishes using ADFNK medium at a density of 20,000 cells/ml. Medium is changed each day but not on Day 3 and Day 4 of differentiation (three and four days after dissociation of ES cells and plating into differentiation medium, respectively). Addition of any factors to differentiating embryonic bodies (EBs) was performed on Day 3. These included: 1 μg/ml Dickopf-1 Dkk1 (R&D Systems), FGF Receptor Inhibitor (PD173074, 100 nM final concentration), FGFb (Recombinant Human, FTF-basic, 120-17, PeproTech), rhGdf11 (R&D Systems, Cat#1958-GD). GDNF (10 ng/ml, R&D Systems) was supplemented on Day 5 of differentiation in selected cultures.
(§2) For immunocytochemical analysis, embryonic bodies (EBs) were dissociated using 0.05% Trypsin-EDTA on Day 6 and plated at low densities on laminin coated coverslips using ADFNB medium supplemented with 10 ng/ml Glial cell-derived neurotrophic factor (GDNF). For quantification of MN subtypes, EBs were collected on Day 6 and dissociated using 0.05 Trypsin-EDTA. Dissociated cells were plated on laminin coated coverslips using ADFNB medium (DMEM/F12, Neurobasal, 1 ml B27 50× supplement and optional 5 ng/ml of GDNF to enhance survival of MN cultures) and fixed with 4% PFA one day later.
(§3) Immunocytochemistry on ES cell-derived MNs and EBs was performed as previously described (Wichterle et al., 2002). Antibodies against the following proteins were used in the analysis during this study: Otx2, Hoxa5, Hoxc8, Hoxc6, Hoxc9, Hoxd9, Hoxd10, Foxp1, Lhx3, Pea3, Scip, NeuN, dsRed, NF.
For each experiment, 10 distinct randomized image fields were taken using a confocal microscope LSM Zeiss Meta 510. Expression of all markers used for quantifications was gated to GFP positive cells, ES cell-derived spinal MNs. Images were analyzed for the expression of the above stated markers in the context of the ES cell-derived caudal brachial MNs. Each quantification is the result of at least three independent experiments (three independent differentiation experiments).
All experiments were performed with HBG3 ES cell line harboring Hb9-GFP transgene (Wichterle et al., 2002) and key experiments were confirmed using a control MM13 ES cell line. Differentiation of HBG3 ES cell line under RA/Hh conditions into rostral cervical MNs was performed as previously described (Wichterle et al., 2002; Wichterle and Peljto, 2008). For production of cervical MNs, ES cells were plated at 50,000 cells/ml in ADFNK differentiation medium [Advanced D-MEM/F-12 (Invitrogen): Neurobasal medium (Invitrogen) (1:1), 10% Knockout Serum Replacement (Invitrogen), […] L-Glutamine (Invitrogen), 0.1 mM β-mercaptoethanol (Sigma), and Pen/Strep (Invitrogen)]. Medium was completely changed on days 1, 2 and of differentiation. EBs were split 1:4 on day 2 of differentiation and the medium was supplemented with 1 μM all-trans retinoic acid (RA, Sigma) and Hh agonist (0.5 μM SAG, Calbiochem or 1 μM HhAg1.3, (Frank-Kamenetsky et al., 2002)). To generate caudal brachial level MNs from ES cells under FGF/Hh conditions, ES cells were plated into non-adherent tissue culture dishes in ADFNK medium (˜20,000 cells/ml). Embryoid bodies (EBs) were split 1:4 on day 2 of differentiation and the medium was changed on days 1, 2 and 5. Selected cultures were supplemented with the following reagents: 10 nM-1 μM RA, 10 nM-1 μM Hh Agonist, 1 μg/ml recombinant mouse Dickkopf-1 (R&D Systems), 50-100 nM FGF/VEGF Receptor Tyrosine Kinase Inhibitor (PD173074, Calbiochem) (Mohammadi et al., 1998), 100-625 ng/ml recombinant human bFGF (PeproTech), 20 ng/ml recombinant human Gdf11/Bmp11 (R&D Systems), 10 ng/ml recombinant rat GDNF (R&D Systems). […]

ES-MNs = test: Motor pool identity of ES-MNs (Pea3, Scip) in response to GDNF; assay type: cell-based, mouse
Experimental: as §1, §2, §3
All experiments were performed with HBG3 ES cell line harboring Hb9-GFP transgene (Wichterle et al., 2002) and key experiments were confirmed using a control MM13 ES cell line. Differentiation of HBG3 ES cell line under RA/Hh conditions into rostral cervical MNs was performed as previously described (Wichterle et al., 2002; Wichterle and Peljto, 2008). For production of cervical MNs, ES cells were plated at 50,000 cells/ml in ADFNK differentiation medium [Advanced D-MEM/F-12 (Invitrogen): Neurobasal medium (Invitrogen) (1:1), 10% Knockout Serum Replacement (Invitrogen), […] L-Glutamine (Invitrogen), 0.1 mM β-mercaptoethanol (Sigma), and Pen/Strep (Invitrogen)]. Medium was completely changed on days 1, 2 and of differentiation. EBs were split 1:4 on day 2 of differentiation and the medium was supplemented with 1 μM all-trans retinoic acid (RA, Sigma) and Hh agonist (0.5 μM SAG, Calbiochem or 1 μM HhAg1.3, (Frank-Kamenetsky et al., 2002)). To generate caudal brachial level MNs from ES cells under FGF/Hh conditions, ES cells were plated into non-adherent tissue culture dishes in ADFNK medium (˜20,000 cells/ml). Embryoid bodies (EBs) were split 1:4 on day 2 of differentiation and the medium was changed on days 1, 2 and 5. Selected cultures were supplemented with the following reagents: 10 nM-1 μM RA, 10 nM-1 μM Hh Agonist, 1 μg/ml recombinant mouse Dickkopf-1 (R&D Systems), 50-100 nM FGF/VEGF Receptor Tyrosine Kinase Inhibitor (PD173074, Calbiochem) (Mohammadi et al., 1998), 100-625 ng/ml recombinant human bFGF (PeproTech), 20 ng/ml recombinant human Gdf11/Bmp11 (R&D Systems), 10 ng/ml recombinant rat GDNF (R&D Systems).
For immunocytochemical analysis, EBs were dissociated using 0.05% Trypsin-EDTA (Invitrogen) on day 6 and plated at low density on coverslips (Carolina Biological) first coated with 0.001% solution of poly-1-ornithine (Sigma; diluted in water) and then with mouse laminin ([…] final concentration in PBS; Invitrogen). Cultures were plated and maintained using ADFNB culture medium [Advanced D-MEM/F12:Neurobasal (1:1), 1× B27 supplement (Invitrogen), […] L-Glutamine, and 1× Pen/Strep]. […]

[2] = Example 1, 1 μg/ml on Day 3 of differentiation

CCN(CC)CCCCNc1ncc2cc(-c3cc(OC)cc(OC)c3)c(NC(=O)NC(C)(C)C)nc2n1 [PD173074, reference compound]
Hoxc8+ cells ([1]; Example 1, 100 nM on Day 3 of differentiation): complete loss of Hoxc8+ cells | Specification of Hoxc8+ ES-MNs ([1]; Example 2, 50 nM on day 3 of differentiation (FIG. 22H)): generation of ES-MNs that expressed Hoxa5 but lacked Hoxc8 expression; also recorded: selectively prevented specification of caudal brachial Hoxc8^+ ES-MNs

FGF-2: basic fibroblast growth factor, recombinant human bFGF
Rostro-caudal positional marker expression / segmental identity ([1]; Example 1): induced predominantly thoracic identity marked by Hoxd9 expression | Induction of brachial or thoracic markers by FGF-2 ([1]; Example 1, in the presence of RA): not sufficient to induce expression of brachial or thoracic markers | Rostro-caudal identity of MNs after FGF2 (Hoxd9) ([1]; Example 2, stained day 7, listed as FGF): significant increase in Hoxd9 expressing cells | Rostro-caudal identity of MNs after FGF2 (Hoxd9) ([1]; Example 2, stained day 7, listed as FGF2): Hoxd9^+ thoracic; also recorded: increase in the number of Hoxd9^+ MNs | Specification of Hoxc8+ ES-MNs by FGF2 added to RA/Hh ([1]; up to 625 ng/ml FGF2 added to 1 μM RA/Hh differentiation condition): did not result in the specification of Hoxc8^+ ES-MNs

B1: GDNF: glial cell line-derived neurotrophic factor, recombinant rat GDNF (protein, UniProt Q07731 78-211, looked up)
Glial cell line-derived …: SPDKQAAALPRRERNRQAAAASPENSRGKGRRGQRGKNRGCVLTAIHLNVTDLGLGYETKEELIFRYCSGSCEAAETMYDKILKNLSRSRRLTSDKVGQACCRPVAFDDDLSFLDDSLVYHILRKHSAKRCGCI
Pea3+ ES-MNs expressing Isl1 (ES-MNs; GDNF 10 ng/ml on day 5): ~90% | Pea3+ ES-MNs expressing Lhx1 (ES-MNs; GDNF 10 ng/ml on day 5): ~10% | Percentage of Scip+ MNs, presence versus absence of GDNF (ES-MNs; brachial MNs): not significantly different | LMC (FoxP1+) MNs expressing Pea3 (ES-MNs; caudal brachial ES-MNs, 10 ng/ml GDNF on day 5): ~20% | Pea3 expression in cervical (RA/Hh differentiated) MNs treated with GDNF (ES-MNs; cervical ES-MNs): no Pea3 expressing MNs were detected; also recorded: not sufficient to induce Pea3 expression; also recorded: do not acquire expression of Pea3 | Scip+ FoxP1+ ES-MNs (ES-MNs; presence or absence of GDNF): ~10%

B2: Dkk1: Wnt antagonist, recombinant mouse Dickkopf-1 (protein, UniProt O54908 32-272, looked up)
Dickkopf-related protein 1: TLNSVLINSNAIKNLPPPLGGAGGQPGSAVSVAPGVLYEGGNKYQTLDNYQPYPCAEDEECGSDEYCSSPSRGAAGVGGVQICLACRKRRKRCMRHAMCCPGNYCKNGICMPSDHSHFPRGEIEESIIENLGNDHNAAAGDGYPRRTTLTSKIYHTKGQEGSVCLRSSDCAAGLCCARHFWSKICKPVLKEGQVCTKHKRKGSHGLEIFQRCYCGEGLACRIQKDHHQASNSSRLHTCQRH
Neural specification (NeuN) [1, 2]: did not interfere with neural specification | Otx2 expression (rostral neural identity) [1, 2]: induction of Otx2 expression | Spinal identity (Hoxa5, Hoxc8, Hoxd9, Hoxd10 expression) [1, 2]: lost their spinal identity | Otx2+ forebrain/midbrain neural cells ([1]; Example 2, 1 μg/ml on day 2, Otx2 on day 5): appearance of Otx2^+ forebrain/midbrain neural cells | Specification of spinal cells (Hox and MN markers) ([1]; Example 2, 1 μg/ml on day 2 of differentiation): lacked spinal character; also recorded: prevented specification of spinal cells

B3: Gdf11: Growth differentiation factor 11, recombinant human Gdf11/Bmp11 (protein, UniProt O95390 299-407, looked up)
Growth/differentiation factor …: NLGLDCDEHSSESRCCRYPLTVDFEAFGWDWIIAPKRYKANYCSGQCEYMFMQKYPHTHLVQQANPRGSAGPCCTPTKMSPINMLYFNDKQQIIYGKIPGMVVDRCGCS
Rostro-caudal positional marker expression / segmental identity ([1]; Example 1): emergence of even more caudal Hoxd10 positive lumbar nerve cells | Rostro-caudal identity of MNs after Gdf11 (Hoxd10) ([1]; Example 2, 20 ng/ml on day 3, stained day 7): Hoxd10^+ lumbar; also recorded: specification of MNs expressing Hoxd10; also recorded: significant increase in Hoxd10 expressing ES-MNs
